Biological target: Pertuzumab Cλ variants
Assay: BLI; antibody light chain variants pre-loaded on Anti-hIgG-Fc Capture (AHC) biosensors, Her2 at 100 nM to 6.25 nM, Octet QKe, 1x kinetic buffer

HIS-tagged Her2 (recombinant extracellular portion) (from UniProt P04626 23-652) (domain or fragment)
Kd: 0.77 to 1.42 nM
